Assay results taken from article PMC2933578, “Mutational analysis of an archaeal minichromosome maintenance protein exterior hairpin reveals critical residues for helicase activity and DNA binding” (BMC Molecular Biology, 2010).

How the values were obtained:
[1] = substrate: Nc1ncnc2c1ncn2[C@@H]1O[C@H](COP(=O)(O)OP(=O)(O)OP(=O)(O)O)[C@@H](O)[C@H]1O; experiment: EnzChek phosphate release ATPase assay; assay type: biochemical, Saccharolobus solfataricus; conditions: no DNA, per monomeric MCM subunit, unit nM
Text: EnzChek phosphate release ATPase assay on ssoMCM

[2] = molecular target: the molecule itself; experiment: SEC; Superose 6 size exclusion column, 250 mM NaCl; ~0.5 mg of protein; markers ferritin (440 kD) and aldolase (158 kD); self-association to the hexamer
[3] = mutant M1: text gives lysine K323, Table 2 prints R323A

B1: ssoMCM mutant M6 (D327A) (enzyme, Sulfolobus solfataricus, UniProt Q9UXG1 1-686, looked up)
chain: MEIPSKQIDYRDVFIEFLTTFKGNNNQNKYIERINELVAYRKKSLIIEFSDVLSFNENLAYEIINNTKIILPILEGALYDHILQLDPTYQRDIEKVHVRIVGIPRVIELRKIRSTDIGKLITIDGILVKVTPVKERIYKATYKHIHPDCMQEFEWPEDEEMPEVLEMPTICPKCGKPGQFRLIPEKTKLIDWQKAVIQERPEEVPSGQLPRQLEIILEDDLVDSARPGDRVKVTGILDIKQDSPVKRGSRAVFDIYMKVSSIEVSQKVLDEVIISEEDEKKIKDLAKDPWIRDRIISSIAPSIYGHWELKEALALALFGGVPKVLEATRIRGDIHILIIGDPGTAKSQMLQFISRVAPRAVYTTGKGSTAAGLTAAVVREKGTGEYYLEAGALVLADGGIAVIDEIDKMRDEDRVAIHEAMEQQTVSIAKAGIVAKLNARAAVIAAGNPKFGRYISERPVSDNINLPPTILSRFDLIFILKDQPGEQDRELANYILDVHSGKSTKNIIDIDTLRKYIAYARKYVTPKITSEAKNLITDFFVEMRKKSSETPDSPILITPRQLEALIRISEAYAKMALKAEVTREDAERAINIMRLFLESVGVDMESGKIDIDTIMTGKPKSAREKMMKIIEIIDSLAVSSECAKVKDILKEAQQVGIEKSNIEKLLTDMRKSGIIYEAKPECYKKV
notes: MCM of Sulfolobus solfataricus with D327A; source: cloned and purified (Resource Q anion exchange, size-exclusion chromatography) as described previously [15]
[1]; mutant M6
  Km: 100 ± 20 nM
  kcat: 0.0383 ± 0.00167 s⁻¹
[2]
  stoichiometry N: 6

B2: ssoMCM mutant M1 (K323A; printed R323A in Table 2) (enzyme, Sulfolobus solfataricus, UniProt Q9UXG1 1-686, looked up)
chain: MEIPSKQIDYRDVFIEFLTTFKGNNNQNKYIERINELVAYRKKSLIIEFSDVLSFNENLAYEIINNTKIILPILEGALYDHILQLDPTYQRDIEKVHVRIVGIPRVIELRKIRSTDIGKLITIDGILVKVTPVKERIYKATYKHIHPDCMQEFEWPEDEEMPEVLEMPTICPKCGKPGQFRLIPEKTKLIDWQKAVIQERPEEVPSGQLPRQLEIILEDDLVDSARPGDRVKVTGILDIKQDSPVKRGSRAVFDIYMKVSSIEVSQKVLDEVIISEEDEKKIKDLAKDPWIRDRIISSIAPSIYGHWELKEALALALFGGVPAVLEDTRIRGDIHILIIGDPGTAKSQMLQFISRVAPRAVYTTGKGSTAAGLTAAVVREKGTGEYYLEAGALVLADGGIAVIDEIDKMRDEDRVAIHEAMEQQTVSIAKAGIVAKLNARAAVIAAGNPKFGRYISERPVSDNINLPPTILSRFDLIFILKDQPGEQDRELANYILDVHSGKSTKNIIDIDTLRKYIAYARKYVTPKITSEAKNLITDFFVEMRKKSSETPDSPILITPRQLEALIRISEAYAKMALKAEVTREDAERAINIMRLFLESVGVDMESGKIDIDTIMTGKPKSAREKMMKIIEIIDSLAVSSECAKVKDILKEAQQVGIEKSNIEKLLTDMRKSGIIYEAKPECYKKV
notes: MCM of Sulfolobus solfataricus with the mutation of M1; also called K323 (M1); source: cloned and purified (Resource Q anion exchange, size-exclusion chromatography) as described previously [15]
[1]; [3]
  Km: 140 ± 30 nM
  kcat: 0.03 ± 0.00167 s⁻¹
[2]
  stoichiometry N: 6

B3: ssoMCM mutant M8 (R329A) (enzyme, Sulfolobus solfataricus, UniProt Q9UXG1 1-686, looked up)
chain: MEIPSKQIDYRDVFIEFLTTFKGNNNQNKYIERINELVAYRKKSLIIEFSDVLSFNENLAYEIINNTKIILPILEGALYDHILQLDPTYQRDIEKVHVRIVGIPRVIELRKIRSTDIGKLITIDGILVKVTPVKERIYKATYKHIHPDCMQEFEWPEDEEMPEVLEMPTICPKCGKPGQFRLIPEKTKLIDWQKAVIQERPEEVPSGQLPRQLEIILEDDLVDSARPGDRVKVTGILDIKQDSPVKRGSRAVFDIYMKVSSIEVSQKVLDEVIISEEDEKKIKDLAKDPWIRDRIISSIAPSIYGHWELKEALALALFGGVPKVLEDTAIRGDIHILIIGDPGTAKSQMLQFISRVAPRAVYTTGKGSTAAGLTAAVVREKGTGEYYLEAGALVLADGGIAVIDEIDKMRDEDRVAIHEAMEQQTVSIAKAGIVAKLNARAAVIAAGNPKFGRYISERPVSDNINLPPTILSRFDLIFILKDQPGEQDRELANYILDVHSGKSTKNIIDIDTLRKYIAYARKYVTPKITSEAKNLITDFFVEMRKKSSETPDSPILITPRQLEALIRISEAYAKMALKAEVTREDAERAINIMRLFLESVGVDMESGKIDIDTIMTGKPKSAREKMMKIIEIIDSLAVSSECAKVKDILKEAQQVGIEKSNIEKLLTDMRKSGIIYEAKPECYKKV
notes: MCM of Sulfolobus solfataricus with R329A; source: cloned and purified (Resource Q anion exchange, size-exclusion chromatography) as described previously [15]
[1]; mutant M8
  Km: 170 ± 40 nM
  kcat: 0.03 ± 0.00167 s⁻¹
[2]
  stoichiometry N: 6

B4: Sulfolobus solfataricus MCM (minichromosome maintenance protein), wild type (enzyme, UniProt Q9UXG1 1-686, looked up)
chain: MEIPSKQIDYRDVFIEFLTTFKGNNNQNKYIERINELVAYRKKSLIIEFSDVLSFNENLAYEIINNTKIILPILEGALYDHILQLDPTYQRDIEKVHVRIVGIPRVIELRKIRSTDIGKLITIDGILVKVTPVKERIYKATYKHIHPDCMQEFEWPEDEEMPEVLEMPTICPKCGKPGQFRLIPEKTKLIDWQKAVIQERPEEVPSGQLPRQLEIILEDDLVDSARPGDRVKVTGILDIKQDSPVKRGSRAVFDIYMKVSSIEVSQKVLDEVIISEEDEKKIKDLAKDPWIRDRIISSIAPSIYGHWELKEALALALFGGVPKVLEDTRIRGDIHILIIGDPGTAKSQMLQFISRVAPRAVYTTGKGSTAAGLTAAVVREKGTGEYYLEAGALVLADGGIAVIDEIDKMRDEDRVAIHEAMEQQTVSIAKAGIVAKLNARAAVIAAGNPKFGRYISERPVSDNINLPPTILSRFDLIFILKDQPGEQDRELANYILDVHSGKSTKNIIDIDTLRKYIAYARKYVTPKITSEAKNLITDFFVEMRKKSSETPDSPILITPRQLEALIRISEAYAKMALKAEVTREDAERAINIMRLFLESVGVDMESGKIDIDTIMTGKPKSAREKMMKIIEIIDSLAVSSECAKVKDILKEAQQVGIEKSNIEKLLTDMRKSGIIYEAKPECYKKV
notes: MCM of Sulfolobus solfataricus, wild type; also called ssoMCM; WT; source: cloned and purified (Resource Q anion exchange, size-exclusion chromatography) as described previously [15]
[1]
  Km: 170 ± 20 nM
  kcat: 0.0517 ± 0.00167 s⁻¹
[2]
  stoichiometry N: 6

B5: ssoMCM mutant M9 (R331A) (enzyme, Sulfolobus solfataricus, UniProt Q9UXG1 1-686, looked up)
chain: MEIPSKQIDYRDVFIEFLTTFKGNNNQNKYIERINELVAYRKKSLIIEFSDVLSFNENLAYEIINNTKIILPILEGALYDHILQLDPTYQRDIEKVHVRIVGIPRVIELRKIRSTDIGKLITIDGILVKVTPVKERIYKATYKHIHPDCMQEFEWPEDEEMPEVLEMPTICPKCGKPGQFRLIPEKTKLIDWQKAVIQERPEEVPSGQLPRQLEIILEDDLVDSARPGDRVKVTGILDIKQDSPVKRGSRAVFDIYMKVSSIEVSQKVLDEVIISEEDEKKIKDLAKDPWIRDRIISSIAPSIYGHWELKEALALALFGGVPKVLEDTRIAGDIHILIIGDPGTAKSQMLQFISRVAPRAVYTTGKGSTAAGLTAAVVREKGTGEYYLEAGALVLADGGIAVIDEIDKMRDEDRVAIHEAMEQQTVSIAKAGIVAKLNARAAVIAAGNPKFGRYISERPVSDNINLPPTILSRFDLIFILKDQPGEQDRELANYILDVHSGKSTKNIIDIDTLRKYIAYARKYVTPKITSEAKNLITDFFVEMRKKSSETPDSPILITPRQLEALIRISEAYAKMALKAEVTREDAERAINIMRLFLESVGVDMESGKIDIDTIMTGKPKSAREKMMKIIEIIDSLAVSSECAKVKDILKEAQQVGIEKSNIEKLLTDMRKSGIIYEAKPECYKKV
notes: MCM of Sulfolobus solfataricus with R331A; source: cloned and purified (Resource Q anion exchange, size-exclusion chromatography) as described previously [15]
[2]
  stoichiometry N: 6

B6: ssoMCM mutant M10 (K346A, Walker A mutant) (enzyme, Sulfolobus solfataricus, UniProt Q9UXG1 1-686, looked up)
chain: MEIPSKQIDYRDVFIEFLTTFKGNNNQNKYIERINELVAYRKKSLIIEFSDVLSFNENLAYEIINNTKIILPILEGALYDHILQLDPTYQRDIEKVHVRIVGIPRVIELRKIRSTDIGKLITIDGILVKVTPVKERIYKATYKHIHPDCMQEFEWPEDEEMPEVLEMPTICPKCGKPGQFRLIPEKTKLIDWQKAVIQERPEEVPSGQLPRQLEIILEDDLVDSARPGDRVKVTGILDIKQDSPVKRGSRAVFDIYMKVSSIEVSQKVLDEVIISEEDEKKIKDLAKDPWIRDRIISSIAPSIYGHWELKEALALALFGGVPKVLEDTRIRGDIHILIIGDPGTAASQMLQFISRVAPRAVYTTGKGSTAAGLTAAVVREKGTGEYYLEAGALVLADGGIAVIDEIDKMRDEDRVAIHEAMEQQTVSIAKAGIVAKLNARAAVIAAGNPKFGRYISERPVSDNINLPPTILSRFDLIFILKDQPGEQDRELANYILDVHSGKSTKNIIDIDTLRKYIAYARKYVTPKITSEAKNLITDFFVEMRKKSSETPDSPILITPRQLEALIRISEAYAKMALKAEVTREDAERAINIMRLFLESVGVDMESGKIDIDTIMTGKPKSAREKMMKIIEIIDSLAVSSECAKVKDILKEAQQVGIEKSNIEKLLTDMRKSGIIYEAKPECYKKV
notes: MCM of Sulfolobus solfataricus with K346A (Walker A lysine); source: cloned and purified (Resource Q anion exchange, size-exclusion chromatography) as described previously [15]
[2]
  stoichiometry N: 6

B7: ssoMCM mutant M5 (E326A) (enzyme, Sulfolobus solfataricus, UniProt Q9UXG1 1-686, looked up)
chain: MEIPSKQIDYRDVFIEFLTTFKGNNNQNKYIERINELVAYRKKSLIIEFSDVLSFNENLAYEIINNTKIILPILEGALYDHILQLDPTYQRDIEKVHVRIVGIPRVIELRKIRSTDIGKLITIDGILVKVTPVKERIYKATYKHIHPDCMQEFEWPEDEEMPEVLEMPTICPKCGKPGQFRLIPEKTKLIDWQKAVIQERPEEVPSGQLPRQLEIILEDDLVDSARPGDRVKVTGILDIKQDSPVKRGSRAVFDIYMKVSSIEVSQKVLDEVIISEEDEKKIKDLAKDPWIRDRIISSIAPSIYGHWELKEALALALFGGVPKVLADTRIRGDIHILIIGDPGTAKSQMLQFISRVAPRAVYTTGKGSTAAGLTAAVVREKGTGEYYLEAGALVLADGGIAVIDEIDKMRDEDRVAIHEAMEQQTVSIAKAGIVAKLNARAAVIAAGNPKFGRYISERPVSDNINLPPTILSRFDLIFILKDQPGEQDRELANYILDVHSGKSTKNIIDIDTLRKYIAYARKYVTPKITSEAKNLITDFFVEMRKKSSETPDSPILITPRQLEALIRISEAYAKMALKAEVTREDAERAINIMRLFLESVGVDMESGKIDIDTIMTGKPKSAREKMMKIIEIIDSLAVSSECAKVKDILKEAQQVGIEKSNIEKLLTDMRKSGIIYEAKPECYKKV
notes: MCM of Sulfolobus solfataricus with E326A; source: cloned and purified (Resource Q anion exchange, size-exclusion chromatography) as described previously [15]
[2]
  stoichiometry N: 6

B8: ssoMCM mutant M2 (V324A) (enzyme, Sulfolobus solfataricus, UniProt Q9UXG1 1-686, looked up)
chain: MEIPSKQIDYRDVFIEFLTTFKGNNNQNKYIERINELVAYRKKSLIIEFSDVLSFNENLAYEIINNTKIILPILEGALYDHILQLDPTYQRDIEKVHVRIVGIPRVIELRKIRSTDIGKLITIDGILVKVTPVKERIYKATYKHIHPDCMQEFEWPEDEEMPEVLEMPTICPKCGKPGQFRLIPEKTKLIDWQKAVIQERPEEVPSGQLPRQLEIILEDDLVDSARPGDRVKVTGILDIKQDSPVKRGSRAVFDIYMKVSSIEVSQKVLDEVIISEEDEKKIKDLAKDPWIRDRIISSIAPSIYGHWELKEALALALFGGVPKALEDTRIRGDIHILIIGDPGTAKSQMLQFISRVAPRAVYTTGKGSTAAGLTAAVVREKGTGEYYLEAGALVLADGGIAVIDEIDKMRDEDRVAIHEAMEQQTVSIAKAGIVAKLNARAAVIAAGNPKFGRYISERPVSDNINLPPTILSRFDLIFILKDQPGEQDRELANYILDVHSGKSTKNIIDIDTLRKYIAYARKYVTPKITSEAKNLITDFFVEMRKKSSETPDSPILITPRQLEALIRISEAYAKMALKAEVTREDAERAINIMRLFLESVGVDMESGKIDIDTIMTGKPKSAREKMMKIIEIIDSLAVSSECAKVKDILKEAQQVGIEKSNIEKLLTDMRKSGIIYEAKPECYKKV
notes: MCM of Sulfolobus solfataricus with V324A; source: cloned and purified (Resource Q anion exchange, size-exclusion chromatography) as described previously [15]
[1]; mutant M2
  Km: 120 ± 20 nM
  kcat: 0.04 ± 0.00167 s⁻¹
[2]
  stoichiometry N: 6
